This note sets out measurements from publication PMC6428923 (Biophysical Journal, 2019).

Where no end group is shown, it is not given here. The star is where a group is joined. Farnesyl = CC(C)=CCC/C(C)=C/CC/C(C)=C/C*

Assay [1] addresses calmodulin (CaM), full-length, amino acids 2-148 (human, UniProt P0DP23 2-148). Description: ITC.
Assay [2] shares this target. Description: ITC. The source holds these as a separate data set.

The molecule KSKTKC(geranyl) (not fully specified (C-terminus); also: methylated (site not given here)) [KSKTKC-geranyl methylated (KSKTKC-GMe)] yielded a dissociation constant (Kd) in assay [1] of 3000 nM.
Regarding KSKTKC(Farnesyl)-OMe [KSKTKC-FMe], in assay [1], the Kd amounted to 400 nM.
For HKEKMSKDGKKKKKKSKTKC(Farnesyl)-OMe [HVR-FMe (hypervariable region of KRAS4b, farnesylated and carboxy-methylated)], in assay [2], the Kd was determined as 300 nM.
In turn, KSKTKC (not fully specified; cysteine with a five-carbon prenyl group, methylated (PMe)) [KSKTKC-prenyl methylated (KSKTKC-PMe)] came in with a Kd in assay [1] of 30000 nM.
